Experimental data published in US20240083953A1 (University of Washington, published 2024).
Positions count from the first letter of the chain named. Numbers in names are those of the source. Read-outs that look alike come from different tables or passages of the source.

Assays:
[1] = target: DSG2 on human cells (HeLa, T84) (human) (UniProt Q14126); experiment: cell-based or functional assay
[2] = target: DSG2 on human cells (HeLa, T84) (human) (UniProt Q14126); experiment: competition with 3H-labelled Ad3 virus for attachment to HeLa cells
[3] = target: T1, DSG2 on human cells (HeLa, T84) (human, UniProt Q14126 50-1118); experiment: cell-based or functional assay
T1 sequence: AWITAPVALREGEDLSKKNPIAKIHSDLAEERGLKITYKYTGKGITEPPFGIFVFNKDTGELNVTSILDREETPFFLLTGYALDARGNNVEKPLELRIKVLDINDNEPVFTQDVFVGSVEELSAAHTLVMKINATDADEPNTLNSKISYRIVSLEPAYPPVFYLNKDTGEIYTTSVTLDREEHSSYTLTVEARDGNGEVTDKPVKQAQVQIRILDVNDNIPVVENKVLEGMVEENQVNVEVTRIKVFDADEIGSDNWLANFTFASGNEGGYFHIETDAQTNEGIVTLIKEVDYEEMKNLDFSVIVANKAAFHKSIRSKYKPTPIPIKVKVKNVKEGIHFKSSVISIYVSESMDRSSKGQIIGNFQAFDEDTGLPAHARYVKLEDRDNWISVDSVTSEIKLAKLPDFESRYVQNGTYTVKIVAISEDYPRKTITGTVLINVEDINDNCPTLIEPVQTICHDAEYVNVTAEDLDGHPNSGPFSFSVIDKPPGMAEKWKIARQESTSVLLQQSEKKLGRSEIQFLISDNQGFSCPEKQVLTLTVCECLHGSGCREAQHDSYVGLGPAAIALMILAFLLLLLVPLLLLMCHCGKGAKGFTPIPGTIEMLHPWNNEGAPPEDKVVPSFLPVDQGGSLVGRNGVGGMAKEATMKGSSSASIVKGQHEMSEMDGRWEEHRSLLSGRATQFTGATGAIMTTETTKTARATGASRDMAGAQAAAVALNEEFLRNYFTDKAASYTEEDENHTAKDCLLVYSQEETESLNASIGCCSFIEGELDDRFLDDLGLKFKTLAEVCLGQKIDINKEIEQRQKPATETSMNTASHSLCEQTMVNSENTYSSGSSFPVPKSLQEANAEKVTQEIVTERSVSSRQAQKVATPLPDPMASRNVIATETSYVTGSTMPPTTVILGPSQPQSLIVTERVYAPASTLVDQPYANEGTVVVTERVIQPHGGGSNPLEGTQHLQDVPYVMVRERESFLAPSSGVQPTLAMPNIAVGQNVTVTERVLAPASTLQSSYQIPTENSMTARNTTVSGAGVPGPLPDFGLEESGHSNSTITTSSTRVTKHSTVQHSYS

[4] = target: T1, DSG2 on human cells (HeLa, T84); experiment: cell-based or functional assay; remark: listed apart in the source
Soluble CD46 = target: T2, Soluble CD46 (UniProt P15529 35-343); experiment: Western blot, soluble CD46 as probe, anti-CD46 mAb
T2 construct: also called sCD46
T2 sequence: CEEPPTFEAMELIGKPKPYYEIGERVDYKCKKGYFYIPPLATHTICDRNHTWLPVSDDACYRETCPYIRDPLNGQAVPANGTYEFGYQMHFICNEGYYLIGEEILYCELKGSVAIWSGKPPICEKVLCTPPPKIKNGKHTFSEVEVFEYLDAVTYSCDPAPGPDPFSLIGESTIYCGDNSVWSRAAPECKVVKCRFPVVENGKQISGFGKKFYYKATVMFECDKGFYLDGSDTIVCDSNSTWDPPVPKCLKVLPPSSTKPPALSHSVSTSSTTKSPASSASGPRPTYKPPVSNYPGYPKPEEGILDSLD

[5] = target: T3, Recombinant human DSG2 protein (desmoglein 2), soluble (human, UniProt Q14126 50-609); experiment: Western blot of dimeric knob, soluble DSG2 as probe
T3 construct: also called soluble DSG2; soluble recombinant DSG2
T3 sequence: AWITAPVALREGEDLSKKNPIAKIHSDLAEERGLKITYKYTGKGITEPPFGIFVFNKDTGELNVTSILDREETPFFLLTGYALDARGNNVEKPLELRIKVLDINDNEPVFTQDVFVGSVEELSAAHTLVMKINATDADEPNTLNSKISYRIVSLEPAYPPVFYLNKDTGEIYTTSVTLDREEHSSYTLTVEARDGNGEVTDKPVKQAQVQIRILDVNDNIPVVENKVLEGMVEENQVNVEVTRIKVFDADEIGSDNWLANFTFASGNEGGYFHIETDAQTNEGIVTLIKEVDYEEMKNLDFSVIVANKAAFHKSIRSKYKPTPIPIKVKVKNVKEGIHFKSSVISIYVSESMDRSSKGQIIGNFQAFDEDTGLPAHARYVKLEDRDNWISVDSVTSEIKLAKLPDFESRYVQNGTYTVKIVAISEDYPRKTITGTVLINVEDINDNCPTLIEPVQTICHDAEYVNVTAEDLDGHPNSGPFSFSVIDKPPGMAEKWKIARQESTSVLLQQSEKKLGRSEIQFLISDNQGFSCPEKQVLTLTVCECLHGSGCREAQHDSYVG

[6] = target: T1, DSG2 on human cells (HeLa, T84); experiment: cell-based or functional assay; remark: listed apart in the source
[7] = target: T3, Recombinant human DSG2 protein …; experiment: SPR, DSG2 immobilised; the filing's constants were got with the knobs without dimerization domain, so the value is set on V239D/noDD
[8] = target: T3, Recombinant human DSG2 protein …; experiment: SPR, DSG2 immobilised; the filing's constants were got with the knobs without dimerization domain, so the value is set on Y250F/noDD
[9] = target: T3, Recombinant human DSG2 protein …; experiment: Western blot of the blotted knob protein probed with soluble human DSG2, anti-DSG2 mAb 6D8 and HRP-anti-mouse IgG

Dimeric Ad3 fiber knob mutant N186D, D261N, L296R (ligand)
Inhibition of infection in the presence of dimeric knob (JO-1 = 100%) [1]: 0% | Inhibition of attachment in the presence of dimeric knob (JO-1 = 100%) [2]: 18.5%

Dimeric Ad3 fiber knob mutant D261N, L296R (ligand)
Inhibition of infection in the presence of dimeric knob (JO-1 = 100%) [1]: 1.5% | Inhibition of attachment in the presence of dimeric knob (JO-1 = 100%) [2]: 20.1%

B1: JO-1 (dimeric wild-type Ad3 fiber knob) (ligand)
chain: MKVSALKEKVSALKEKVSALKEKVSALKEKVSALKEGSGGGSGGGSGGGSNSIALKNNTLWTGPKPEANCIIEYGKQNPDSKLTLILVKNGGIVNGYVTLMGASDYVNTLFKNKNVSINVELYFDATGHILPDSSSLKTDLELKYKQTADFSARGFMPSTTAYPFVLPNAGTHNENYIFGQCYYKASDGALFPLEVTVMLNKRLPDSRTSYVMTFLWSLNAGLAPETTQATLITSPFTFSYIREDD
notes: also called dimeric wt Ad3 fiber knob; dimeric wtAd3 knob
IC50 (read off the curve): inhibition of Ad3-GFP infection of HeLa cells, % GFP-positive cells [3]: ~5 µg/mL | IC50 (read off the curve): inhibition of Ad3-GFP infection of HeLa cells, MFI of GFP [4]: ~0.6 µg/mL | binding result (Soluble CD46): no binding

B2: Dimeric Ad3 fiber knob mutant N186D, D261N, L296R (ligand)
chain: B1 chain with N113D, D188N, L223R
notes: also called mutant with mutations in all three areas (N185, D261, L296)
binding result [5]: no binding

B3: Ad3-S6/Kn (ligand)
chain: NGVLSLKCVNPLTTASGSLQLKVGSGLTVDTTDGSLEENIKVNTPLTKSNHSINLPIGNGLQIEQNKLCSKLGNGLTFDSSNSIALKNNTLWTGPKPEANCIIEYGKQNPDSKLTLILVKNGGIVNGYVTLMGASDYVNTLFKNKNVSINVELYFDATGHILPDSSSLKTDLELKYKQTADFSARGFMPSTTAYPFVLPNAGTHNENYIFGQCYYKASDGALFPLEVTVMLNKRLPDSRTSYVMTFLWSLNAGLAPETTQATLITSPFTFSYIREDD
notes: also called Ad3 fiber knob with six shaft motifs
binding result (Soluble CD46): no binding

B4: Ad3 fiber knob mutant V239D without dimerization domain (ligand)
chain: NKLCSKLGNGLTFDSSNSIALKNNTLWTGPKPEANCIIEYGKQNPDSKLTLILVKNGGIVNGYVTLMGASDYVNTLFKNKNVSINVELYFDATGHILPDSSSLKTDLELKYKQTADFSARGFMPSTTAYPFDLPNAGTHNENYIFGQCYYKASDGALFPLEVTVMLNKRLPDSRTSYVMTFLWSLNAGLAPETTQATLITSPFTFSYIREDD
notes: range 108-319; also called V239D/noDD; not shown: N-terminal 6-His tag of pQE30 and a Gly/Ser linker coded by primer P1
IC50 (read off the curve): inhibition of Ad3-GFP infection of HeLa cells, MFI of GFP [6]: ~4 µg/mL | Kd [7]: 24.9 nM

B5: Ad3 fiber knob mutant Y250F without dimerization domain (ligand)
chain: B4 chain with D132V, Y143F
notes: range 108-319; also called Y250F/noDD; not shown: N-terminal 6-His tag of pQE30 and a Gly/Ser linker coded by primer P1
Kd [8]: 11.4 nM

B6: Ad3-S/Kn (ligand)
chain: SIALKNNTLWTGPKPEANCIIEYGKQNPDSKLTLILVKNGGIVNGYVTLMGASDYVNTLFKNKNVSINVELYFDATGHILPDSSSLKTDLELKYKQTADFSARGFMPSTTAYPFVLPNAGTHNENYIFGQCYYKASDGALFPLEVTVMLNKRLPDSRTSYVMTFLWSLNAGLAPETTQATLITSPFTFSYIREDD
binding result [9]: no binding | binding result (Soluble CD46): no binding
